Assay [1] has as its target T1, human ALC1 (residues 1-880) (human, UniProt Q86WJ1).
T1 construct: ALC1 (CHD1L), human, residues 1-880 cloned from cDNA; the crystallised construct holds the motor domain, the linker region and the macro domain; also called CHD1L; WT; source: E. coli Rosetta (DE3), purified (Ni-NTA, Source-15S, Superdex-200)
Put plainly: crystal structure; ALC1-scFv complex (mixed 1:1.1, purified on Superdex 200), crystallised in the presence of ADP-Mg; 3.5 Å. As to conditions: both partners purified.

Assay [2] concerns the target histone H4 (in the nucleosome) (UniProt P62799 2-103). Put plainly: cryo-EM structure; R857Q of ALC1 (30 μM) mixed with 167NCP (6 μM), ADP-BeFx, GraFix; single-binding map 2.8 Å; a class with two copies of ALC1 on the nucleosome 3.3 Å. As to conditions: both partners purified.

B1: single-chain antibody (scFv) against ALC1 used for crystallization (scFv, V domains shown)
VH: QVQLQQSGPGLVRPSQTLSLTCAISGDSVSDNDAAWNWVRQSPSRGLEWLGRTYYRSKWSNEYAVFVQSRITINPDTSKNQFSLHLNSVTPEDTAVYYCARATRPTGNGLDIWGQGTMVTVSS
VL: SYVLTQPPSVSVAPGQTARITCGGNNIGSKSVHWYQQKPGQAPVLVVYDDSDRPSGIPERFSGSNSGNTAALTISRVEAGDEADYYCQVWDSSSDHVVFGGGTKLTVL
notes: human scFv from a non-immunized yeast-display library; One of seven clones; also called the antibody; source: HEK293F, transfected, secreted, purified (Ni-NTA, Superdex 75)
In the case of B1, the binding result in assay [1] is “binds”.

B2: ALC1 R857Q mutant (enzyme)
chain: MERAGATSRGGQAPGFLLRLHTEGRAEAARVQEQDLRQWGLTGIHLRSYQLEGVNWLAQRFHCQNGCILGDEMGLGKTCQTIALFIYLAGRLNDEGPFLILCPLSVLSNWKEEMQRFAPGLSCVTYAGDKEERACLQQDLKQESRFHVLLTTYEICLKDASFLKSFPWSVLVVDEAHRLKNQSSLLHKTLSEFSVVFSLLLTGTPIQNSLQELYSLLSFVEPDLFSKEEVGDFIQRYQDIEKESESASELHKLLQPFLLRRVKAEVATELPKKTEVVIYHGMSALQKKYYKAILMKDLDAFENETAKKVKLQNILSQLRKCVDHPYLFDGVEPEPFEVGDHLTEASGKLHLLDKLLAFLYSGGHRVLLFSQMTQMLDILQDYMDYRGYSYERVDGSVRGEERHLAIKNFGQQPIFVFLLSTRAGGVGMNLTAADTVIFVDSDFNPQNDLQAAARAHRIGQNKSVKVIRLIGRDTVEEIVYRKAASKLQLTNMIIEGGHFTLGAQKPAADADLQLSEILKFGLDKLLASEGSTMDEIDLESILGETKDGQWVSDALPAAEGGSRDQEEGKNHMYLFEGKDYSKEPSKEDRKSFEQLVNLQKTLLEKASQEGRSLRNKGSVLIPGLVEGSTKRKRVLSPEELEDRQKKRQEAAAKRRRLIEEKKRQKEEAEHKKKMAWWESNNYQSFCLPSEESEPEDLENGEESSAELDYQDPDATSLKYVSGDVTHPQAGAEDALIVHCVDDSGHWGRGGLFTALEKRSAEPRKIYELAGKMKDLSLGGVLLFPVDDKESRNKGQDLLALIVAQHRDRSNVLSGIKMAALEEGLKKIFLAAKKKKASVHLPRIGHATKGFNWYGTEQLIRKHLAARGIPTYIYYFPRSKS
notes: ALC1 (CHD1L), human, residues 1-880 with R857Q; the mutant was made by mutagenesis; also called R857Q of ALC1; source: E. coli Rosetta (DE3), purified (Ni-NTA, Source-15S, Superdex-200)
With B2, the binding result in assay [2] was “binds”.

The record behind these values is publication PMC8249414, “Structural basis of ALC1/CHD1L autoinhibition and the mechanism of activation by the nucleosome” (Nature Communications, 2021).
